Measured values as given in article PMC5429858.

Test system: EZH2 (recombinant PRC2 complex)
Experiment: pull-down (streptavidin) + western
Settings: Folding buffer 100 mM KCl, 50 mM Tris-HCl, 5 mM MgCl2, 0.1 mM CaCl2, 0.5 mM ZnCl2 with BSA and RNase inhibitor (pH not given); PNA 30 min 37 C (legend: 1 h …)

HOTAIR full-length lncRNA
binding signal (% reduction of binding): 80
